Source: publication PMC5785501, “Crystal structure of lipid A disaccharide synthase LpxB from Escherichia coli” (Nature Communications, 2018)
Where a chain is given by its changes, count along the chain named. In names and notes the source's numbering stands.

Assays:
[1] = target: the molecule itself; experiment: crystal structure; X-ray, one molecule in the asymmetric unit, dimer by crystal symmetry; LiCl, PEG 4000, 0.1 M Tris-HCl pH 8.6; apo and soaked with 10 mM UDP-GlcNAc
[2] = target: the molecule itself; experiment: AUC; LpxB6S at 1 mg/ml, 5,000-16,000 r.p.m. for 10 h each, absorbance at 280 nm; mass modelled

B1: LpxB7S (LpxB6S with M207S) (enzyme, Escherichia coli, UniProt P10441 1-382, looked up)
chain: MTEQRPLTIALVAGETSGDILGAGLIRALKEHVPNARFVGVAGPRMQAEGCEAWYEMEELAVMGISESSGRSRRSSHIRADLTKRFGELKPDVFVGIDAPDFNITLEGNLKKQGIKTIHYVSPSVWAWRQKRVFKIGRATDLVLAFLPFEKAFYDKYNVPCRFIGHTMADAMPLDPDKNAARDVLGIPHDAHCLALLPGSRGAEVESLSADFLKTAQLLRQTYPDLEIVVPLVNAKRREQFERIKAEVAPDLSVHLLDGMGREAMVASDAALLASGTAALECMLAKCPMVVGYRMKPFTFWLAKRLVKTDYVSLPNLLAGRELVKELLQEECEPQKLAAALLPLLANGKTSHAMHDTFRELHQQIRCNADEQAAQAVLELAQ
notes: lipid A disaccharide synthase LpxB, Escherichia coli; Native LpxB7S, apo and soaked with UDP-GlcNAc (UDP seen); also called LpxB6SM207S; source: E. coli BL21 (DE3), purified (Ni-NTA, Ulp1 cleavage, Superdex 200); not shown: His tag, N-terminal, cleaved; SUMO, N-terminal, cleaved
binding result [1]: binds

B2: LpxB6S (E. coli lipid A disaccharide synthase LpxB with V66S, V68S, L69S, L72S, L75S, L76S) (enzyme, Escherichia coli, UniProt P10441 1-382, looked up)
chain: B1 chain with S207M
notes: lipid A disaccharide synthase LpxB, Escherichia coli; residues up to 382 named in the structure; the gene was cloned from strain BL21; also called soluble LpxB; solubilized LpxB; source: E. coli BL21 (DE3), purified (Ni-NTA, Ulp1 cleavage, Superdex 200); not shown: His tag, N-terminal, cleaved; SUMO, N-terminal, cleaved
stoichiometry N [2]: 2
